This is an account of results in patent publication US20140289906A1, “Compositions Having Dicamba Decarboxylase Activity and Methods of Use” (priority 2013, published 2014).

Residue numbers refer to the chain shown, from its start.

To fix the notation:
B1: 56 (protein)
chain: MAKIICLEEHYLDSELGRACMPVALEQAPFLGDWGKTVADGHNPDRSRPQIEKNALINAKGADLGSRRLRDMDEAGITLQILSVGGFPQLAPEDEAVTLNTAANDRLAEAVRNHPDRFAAFATLPWAQPKDAENELVRAVEKLGFKGALLNGRPSSCFLDHPDYDSLLSRFNKLNVPLYLHPGLPLKSVQQAYFTGFSAEVNARLSMFGWGWHHEAGIHLLRLMLSGAFDKYPNMQVISGHWGEMLPFWLQRLDDSLPLAATGLSRTLTRTFQEHVYVTPSGMLTLPHFKFIYELMGAERILFSVDYPYQTLDGVKTFIDSLPVNKAEKEAIAFRNAERLLGITA
modifications: Enterobacter aerogenes
B2: 81 (protein, listed as Verticillium dahliae)
chain: MAASTKPKVVDIHTHMYPPSYIDILTSRTAIPVVRTFPQAADPRLILLDAEQQALDAALQDPTAKPPGRPLTSHYASLDQKIHFMDTHSIDISVVSLANPWLDFIEPKEAAATARSVNDEFEAMCASQPGRLFFFAALPLTAPLPALLEAVRHVAELEHCRGVILGTSGLGSGLDDPELVPVLEAVAAAALTVFLHPHYGLPNDVWGPRASAEYGHVLPLALGFPMETTIAVARMYLAGVFDRVPALRMLLAHSGGTLPFLAGRIESCILHDGQLVAEGKVGAARRTIWDVLREQVYLDAVIYSEIGLKAAIAASGGADRLMFGTDHPFFPPLGTDEQAKKESRINAGGSRPMITGNAMINGHGGLCNHITQSDYQDVVL
B3: 53 (protein, listed as Granulicella tundricola)
chain: MARTITLEEHFVTDSFLRATGAYDKPAPPWLAQLQPKLLDLGDGRIAAMDEAGIDLQVLSLAALGFDALDAATATPLVHDINDELAAAVRANPTRLAAFASLALKDPQSAARELERAIQKLGFRGVLLDGTTDGLFLDDPRFTPVFEAAVALNVPIYLHPAPPPESVFDTYFTGLPEGVGQMLSIAGWGWHAETALHTLRLITNGVFDRYPTLQLIIGHMGEMLPMALARTSKALSHAARLRQPVAAYFQSNIHLTTSGYFTQPPLRCALDVVGIDRLMFSIDYPFSANTLGRDYLTELEQTLTPEDLAKLIHRNAESLLNLS
B4: 49 (protein, listed as Streptomyces sp.)
chain: MAKIIALEEHFSDPAVAKAGAARARALSPGFAASYSPASGLPYSPSPEVLENLAEKRLADMDAGGITMQVLSGLGAQTVPADVAPALVAGSNDKAAAAVRAHPDRFAAFAALPTATPEAAVAELDRSVNELGFVGTLIMGRTEGEFLDAPRFEPILARAAALKVPVFLHPGVPPREITDSNYAAGLPTGIGTRLQTAAWGWHQETAVHFLHLVHSGVLDRYPDLQFILGHWGEMIPFYLDRVDEALPQRATGLDRSFHEYFRENVYLAPSGMWSQAQLRFCLETVPLERIVFAVDYPFIGNEGAVPFLEKAELPQADKRKIAHENAERLLGL
B5: 52 (protein, listed as Streptomyces sp.)
chain: B4 chain with R25Q, G75S, T116A, M234T, V285F, Q315E
B6: 54 (protein, listed as Streptomyces sp.)
chain: B4 chain with R25Q, T116A, V128I, D223G, Q315E
B7: 51 (protein, listed as Mycobacterium gilvum)
chain: MARVIAIEEHYAHPGLQPAEALANLRKHPQLARIQDKLEDLGAGRLADMDAAGIDMQVLSHTVPGAEALPAAQAVDVVRQTNDDLAEVIAAHPDRFAGFAALPMRDPQAAATELQRAVGTLGFCGAMINGLIEGRFLDHPDFTPLLSTAADLGVPLYLHPSFPPPQVAQIYFGGLPPVLADLLATAGWGWHAETALHVLRLISTGVFDRLPELRVIVGHMGEMIPFALARIDTVLSPMTELRQPVAQYFQTNVWFTTSGYTTFPPLQCALSTVGIDRLIFSVDYPYTDNASARALLDTAPISPVDREKLAHATVEALLRV
B8: 50 (protein, listed as Streptomyces sp.)
chain: MARIVTLEEHWTDPAVTAAGMPNLLDHVPGYAAAFDPDTGMPYPRHPELLEDLGAARIADMDRHGITTQVLSLVNTFLPADVAPRLTAAANDAMAAAVEAFPGRFAAFATLPTAVPGAAADELRRCVGELGFVGTMIMGRTDGEFLDQPRFDPILRAASDLSVPVYLHPAPPPVAVSEASYAGGLSPAVSAAFRLAAWGWHQETAVHLLHLVLAGVLDRYPGLQFVLGHWGEFIPFYLDRLDESMPRRMTGLDRTFREYFRDNVFITPSGMFSQAQLRYCADTVGTDRIIHSVDFPMLGNEGAVSFLTDSHLSREDQEKIAHGNADALLGLG
B9: 2 (protein, listed as Serratia sp.)
chain: MAKIICLEEHTLDKALVMASMPAALEQAPFLSDWGKTVTDGNLPDRSRPQIEKNDLINIKGADIGRGRLDDMDVAGITMQVLSVGGFPHLISAAEGVDLNRAANDRLADAVNAHPDRFAAFATLPWAQPDSAEKELERAVKELGFKGALLNGRPSTHFLDHPDYDGLLARFNALGVPLYLHPGLPVRSVQQAYYGGFSDEVTARLSMFGWGWHHEAGIHLLRLILSGAFDKYPNLQVISGHWGEMLPFWLQRLDDSLPQAATGLRRTIAQTFKEQVYVTPSGMLTLPHFQFIYALLGAERIIFSVDYPYQTLDGVKAFIQSLPVPEEAKEAIAFRNAERLLGLTS
B10: 55 (protein, listed as Serratia sp.)
chain: B9 chain
B11: 79 (protein)
chain: MATTTTPSTLIATLESHLTPTLAFTSPTTSPTQPALHLIPPTTLTKLRNLGPGRVKDMHMLGHSRQIISHIPVAAPPQICSRFNDAIHAATMTNTAKFSVLAVLPTDGMEAAKELARCVSKYRFVGGVIGLNRGLRINGEGWEELWGLAERLRIPIMFREMWPLAFEIVDYQHHLPYSALGPILTQLHTSHTSSPLPLVRLYLSSVFDHYPSLRLVLAHPGSLPSLVPRIESLINSIPATDKPKRSFLDVWQHNIYLTTADAQDMSSLRALLEQIPVDRVLYASNYPFEERGNELMNELRESEFLTNIEWERVAWVNAETLFNLKEAGTKEARQLTTIPSSRS
modifications: Pyrenophora teres
B12: 58 (protein)
chain: MARVIALEEHYATTEFLRGPGTWLASRPGIVEPAGDLGDGRIAAMDQAGVDLAVLSLAAPGVEQLDPDDAVRLARDCNDQLAAAVRRYPDRLAGFATVPTSAPDRAADELERAVRGLGFPGAVINGHSRGRYLDDPFFEPVLARAAELQAPIYLHPTIPPAGVIESSYAGFAEPVTFALATVGWGWHINTATHALRMILGGVFDRHPSLQMIIGHMGEATSFMLPRFDATLKPELTGLNHPVSSYLRENFHYTFANFNDHATYANLVAQVGIERVAFSADYPFGSMVDARAFLDGLPLSDDERAAISHRNAEKLLGL
modifications: Mycobacterium colombiense
B13: 57 (protein)
chain: MAKLICVEEHVLDPAVGAATQSLVRAEAPYLPDWGSRVLDGRHVADRSRPHVIAPSESARKALEMGEPRLADMDAASIDMQVLSYGGFPQLLPAAQAIDLNRAANDKLALAAQAHPARFAGFATLPWQAPEAAARELERAVKQLGLKGALINGRPGDTFLDDARYAPILAAFDELKVPLYVHPGLPLPAVQAPYYGGFERELSARLAMFAWGWHNEAGIQVVRMLLAGVFDRHPRLQLISGHWGEMVPFFLQRLEDSIPQEASGLQRPIVQTYREHVYISPSGMFTLPHFQFIHALMGAQRILYSIDYPYQSLDGARAFIERLPISDTDKALIAHRNAERLLHL
modifications: Collimonas fungivorans

The first data set can be described thus: 14C assay: 14CO2 capture from [14C]-carboxyl-labeled dicamba with IPTG-induced recombinant E. coli cells. The note with it: IPTG-induced recombinant E. coli cells; 14CO2 from [14C]-carboxyl-labeled dicamba.
For B1, the “Dicamba Decarboxylase Activity” value is “High”.
B2: the “Dicamba Decarboxylase Activity” value was “High”.
Same read-out and setting: in the case of B3 it was “High”; in that of B4, “High”; in that of B5, “High”.
As for B6, the “Dicamba Decarboxylase Activity” value is listed as “High”.
As to B7, the “Dicamba Decarboxylase Activity” value is on record as “High”.
Consider B8, for which the “Dicamba Decarboxylase Activity” value is listed as “High”.
Regarding B9, the “Dicamba Decarboxylase Activity” value is reported as “High”.
For the molecule B10, the “Dicamba Decarboxylase Activity” value is listed as “High”.
With B11, the “Dicamba Decarboxylase Activity” value is “High”.
As to B12, the “Dicamba Decarboxylase Activity” value is reported as “High”.
On to B13, for which the “Dicamba Decarboxylase Activity” value is on record as “High”.

Still in this data set, the particulars now being: among the 108 sequences tested; recombinant E. coli cell assay.
B1: the “decarboxylation activity of dicamba” value is “showed decarboxylation activity of dicamba”.
On the same count and under the same terms, in the case of B2 it was “showed decarboxylation activity of dicamba”; in that of B3, “showed decarboxylation activity of dicamba”; in that of B4, “showed decarboxylation activity of dicamba”.
B5: the “decarboxylation activity of dicamba” value is reported as “showed decarboxylation activity of dicamba”.
Consider B6, for which the “decarboxylation activity of dicamba” value is recorded as “showed decarboxylation activity of dicamba”.
Regarding B7, the “decarboxylation activity of dicamba” value is “showed decarboxylation activity of dicamba”.
The same measure, in the same setting: in the case of B8 it was “showed decarboxylation activity of dicamba”; in that of B9, “showed decarboxylation activity of dicamba”.
With B10, the “decarboxylation activity of dicamba” value is given as “showed decarboxylation activity of dicamba”.
Turning to B11, the “decarboxylation activity of dicamba” value is listed as “showed decarboxylation activity of dicamba”.
Turning to B12, the “decarboxylation activity of dicamba” value is on record as “showed decarboxylation activity of dicamba”.
In the case of B13, the “decarboxylation activity of dicamba” value is given as “showed decarboxylation activity of dicamba”.

Still in this data set, the particulars now being: dicamba decarboxylation activity.
With B1, the “Enzymatic Detection level” value is “High”.
Regarding B2, the “Enzymatic Detection level” value is on record as “High”.
Consider B3, for which the “Enzymatic Detection level” value is reported as “High”.
Consider B4, for which the “Enzymatic Detection level” value is “High”.
On to B5, for which the “Enzymatic Detection level” value is recorded as “High”.
As to B6, the “Enzymatic Detection level” value is reported as “High”.
Turning to B7, the “Enzymatic Detection level” value is “High”.
The same measure, in the same setting: under B8 stands “High”; under B9, “High”.
In the case of B10, the “Enzymatic Detection level” value was “High”.
As to B11, the “Enzymatic Detection level” value is recorded as “High”.
Take B12: the “Enzymatic Detection level” value is given as “High”.
Regarding B13, the “Enzymatic Detection level” value was “High”.
